{
  "source": "patent US20090286858A1",
  "about": "“ASSAYS FOR MODULATORS OF ASPARAGINYL HYDROXYLASE” (ISIS INNOVATION LIMITED, priority 2002, published 2009)",
  "molecules": {"B1": {"name": "His6-HIF-1α 344-503: His6-tagged section of HIF-1α, residues 344-503 (protein)", "chain": "GIIQHDLIFSLQQTECVLKPVESSDMKMTQLFTKVESEDTSSLFDKLKKEPDALTLLAPAAGDTIISLDFGSNDTETDDQQLEEVPLYNDVMLPSPNEKLQNINLAMSPLPTAETPKPLRSSADPALNQEVALKLEPNPESLELSFTMPQIQDQTPSPSD", "modifications": "left off: small tags and cut ends"}, "B2": {"name": "GST HIF-1α 530-652: GST tagged fusion of human HIF-1α residues 530-652 (protein)", "chain": "EFKLELVEKLFAEDTEAKNPFSTQDTDLDLEMLAPYIPMDDDFQLRSFDQLSPLESSSASPESASPQSTVTVFQQTQIQEPTANATTTTATTDELKTVTKDRMEDIKILIASPSPTHIHKETT", "modifications": "left off: a dimerising Fc or GST"}, "B3": {"name": "His6-HIF-1α 530-698: His6-tagged section of HIF-1α, residues 530-698 (protein)", "chain": "EFKLELVEKLFAEDTEAKNPFSTQDTDLDLEMLAPYIPMDDDFQLRSFDQLSPLESSSASPESASPQSTVTVFQQTQIQEPTANATTTTATTDELKTVTKDRMEDIKILIASPSPTHIHKETTSATSSPYRDTQSRTASPNRAGKGVIEQTEKSHPRSPNVLSVALSQR", "modifications": "left off: small tags and cut ends"}},
  "format_in_all_cases": "biochemical",
  "key": {"[1]": {"target": "T1, FIH (Homo sapiens, UniProt Q9NWT6)", "T1 construct": "His6 (N, cleaved yes); made in house; host or cells: Escherichia coli BL21(DE3)", "T1 sequence (Q9NWT6 with tags, fused parts or gaps)": "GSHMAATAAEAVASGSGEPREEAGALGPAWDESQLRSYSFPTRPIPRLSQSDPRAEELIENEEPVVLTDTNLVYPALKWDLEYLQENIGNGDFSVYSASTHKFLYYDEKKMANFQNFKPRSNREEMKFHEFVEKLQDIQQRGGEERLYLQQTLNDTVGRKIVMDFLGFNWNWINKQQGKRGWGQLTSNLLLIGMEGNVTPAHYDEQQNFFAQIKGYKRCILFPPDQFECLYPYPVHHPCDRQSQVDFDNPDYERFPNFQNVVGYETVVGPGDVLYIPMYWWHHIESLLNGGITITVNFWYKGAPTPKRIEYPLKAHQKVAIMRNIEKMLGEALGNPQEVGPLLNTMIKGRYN", "assay": "FIH inhibition and metal dependence assays (2-OG decarboxylation, GST HIF-1α 775-826 as substrate)", "procedure": "(§1) FIH assays—Assays for decarboxylation of 2-OG were performed using radiolabelled 2-OG (New England Nuclear) as reported in Epstein et al supra. Incubations contained ascorbate, DTT, catalase, 2-OG, FIH, and substrate in 50 mM Tris/HCl pH7.4, and were carried out at 37° C. typically for 20 minutes. HPLC separations were achieved on a Phenomenex Jupiter C4 (10 cm×4.6 mm) column by using of a linear gradient of CH3CN in 0.1% TFA. For inhibition and metal dependence assays, GST HIF-1α 775-826 was used as substrate at 30 μM, and with iron (II) ammonium sulfate, cobalt (II) chloride, zinc (II) chloride, and N-oxaloylglycine at final concentrations of 0, 2, 10, 40, 80 and 200 μM. Assays under an atmosphere of ^18O2 were performed as reported in McNeill et al, Bioorg Med Chem Lett, 2002 12, 1547-1550.\nFurther characterization of FIH activity—To explore the mechanism of FIH and its relationship to the characteristics of in vivo HIF activation, in vitro analyses of FIH using the purified recombinant protein were performed."}, "[2]": {"target": "T1, FIH", "assay": "GST pulldown assay: capture of 35S-labelled p300 CH1 by HIF-1α CAD after exposure to FIH", "details": "for ability to capture CH1 after pre-incubation with FIH: GST-fused polypeptide, 35S-labelled CH1", "procedure": "N-oxaloylglycine was added to 5 mM when required. Glutathione Sepharose beads were added for 40 minutes at 25° C. and then washed with 50 mM Tris/HCl pH 7.4, 0.5% NP40, 150 mM NaCl and 1 mM DTT. […] Binding was performed for 1 hour at 25° C. and the beads were then washed in the same buffer. The bound proteins were eluted in SDS running buffer and analyzed by SDS-PAGE and autoradiography."}, "[3]": {"target": "T1, FIH", "assay": "FIH 2-OG decarboxylation (CO2 release) assay with HIF-1α polypeptide substrates", "details": "for % activity relative to 775-826 peptide: same conditions; for % activity relative to 775-826 peptide / CO2 released: polypeptide as FIH substrate; for CO2 released: standard assay conditions", "procedure": "as §1"}, "[4]": {"details": "in vitro kinetic assays, recombinant FIH, GST HIF-1α 775-826 at 30 μM, read-out: IC50"}},
  "note": "Where two headings read alike, the source gives them in different places. Where no end group is shown, it is not given here.",
  "data": [
    {"molecule": "[Cl-].[Cl-].[Co+2]", "note": "[Cobalt (II), cobalt (II) chloride]", "values": [
      {"measurement": "IC50", "setting": "[1]; [4]", "value": 10, "unit": "µM"}
    ]},
    {"molecule": "O=C(O)CNC(=O)C(=O)O", "note": "[N-oxaloylglycine, reference compound]", "values": [
      {"measurement": "IC50", "setting": "[1]", "value": 25, "unit": "µM"},
      {"measurement": "inhibition of FIH effect on CH1 capture by HIF-1α CAD", "setting": "[2]; N-oxaloylglycine 5 mM in FIH/HIF-1α CAD reaction step", "value": "inhibited the effect of FIH"}
    ]},
    {"molecule": "GST HIF-1α 775-826 N803D: GST HIF-1α 775-826 with Asn-803 mutated to aspartate (PSDLACRLLGQSMDESGLPQLTSYDCEVDAPIQGSRNLLQGEELLRALDQVN; cysteine pairing not given here; also: GST fusion, not in chain; UniProt Q16665 775-826, looked up, variant N803D)", "values": [
      {"measurement": "2-OG turnover relative to the analogous Asn-803 substrate", "setting": "[3]; GST HIF-1α 775-826 mutant", "value": "≤ 7", "unit": "%"},
      {"measurement": "% activity relative to 775-826 peptide", "setting": "[3]", "value": 7, "unit": "%"},
      {"measurement": "CO2 released", "setting": "[3]", "value": 0.22, "unit": "nmol"}
    ]},
    {"molecule": "HIF-1α 775-826: free polypeptide encompassing the human HIF-1α CAD (residues 775-826), GST tag removed", "values": [
      {"measurement": "Vmax", "setting": "[3]; preliminary kinetic parameter, 2-OG turnover assay", "value": 0.3, "unit": "µmol/min/mg"},
      {"measurement": "Km", "setting": "[3]; preliminary kinetic parameter, 2-OG turnover assay, read-out: Km(peptide)", "value": 10, "unit": "µM"},
      {"measurement": "% activity relative to 775-826 peptide", "setting": "[3]", "value": 100, "unit": "%"},
      {"measurement": "CO2 released", "setting": "[3]", "value": 2.8, "unit": "nmol"}
    ]},
    {"molecule": "O=S(=O)([O-])[O-].O=S(=O)([O-])[O-].[Fe+2].[NH4+].[NH4+]", "note": "[iron (II), iron (II) ammonium sulfate]", "values": [
      {"measurement": "effect of exogenous metal on FIH activity", "setting": "[1]; added to purified FIH/HIF-1α CAD assay", "value": "no further increase in activity"}
    ]},
    {"molecule": "GST HIF-1α 775-826 N803A: GST HIF-1α 775-826 with Asn-803 mutated to alanine (PSDLACRLLGQSMDESGLPQLTSYDCEVAAPIQGSRNLLQGEELLRALDQVN; cysteine pairing not given here; also: GST fusion, not in chain)", "values": [
      {"measurement": "% activity relative to 775-826 peptide", "setting": "[3]", "value": "<0.01", "unit": "%"},
      {"measurement": "CO2 released", "setting": "[3]", "value": "<0.001", "unit": "nmol"},
      {"measurement": "ability to capture CH1 after pre-incubation with FIH", "setting": "[2]", "value": "unaffected"}
    ]},
    {"molecule": "2-oxoglutarate [2-OG, reference compound]", "values": [
      {"measurement": "Km", "setting": "[3]; preliminary kinetic parameter, with free HIF-1α 775-826 peptide, 2-OG turnover assay, read-out: Km(2-OG)", "value": 10, "unit": "µM"}
    ]},
    {"molecule": "GST HIF-1α 577-826: GST tagged fusion of human HIF-1α residues 577-826", "values": [
      {"measurement": "% activity relative to 775-826 peptide", "setting": "[3]", "value": 67, "unit": "%"},
      {"measurement": "CO2 released", "setting": "[3]", "value": 0.81, "unit": "nmol"}
    ]},
    {"molecule": "GST HIF-1α 775-826: N-terminal glutathione S-transferase tagged fusion of human HIF-1α residues 775-826 (CAD)", "values": [
      {"measurement": "% activity relative to 775-826 peptide", "setting": "[3]", "value": 96, "unit": "%"},
      {"measurement": "CO2 released", "setting": "[3]", "value": 2.7, "unit": "nmol"},
      {"measurement": "ability to capture CH1 after pre-incubation with FIH", "setting": "[2]", "value": "strikingly reduced"}
    ]},
    {"molecule": "GST HIF-1α 775-826 N803Q: GST HIF-1α 775-826 with Asn-803 mutated to glutamine (PSDLACRLLGQSMDESGLPQLTSYDCEVQAPIQGSRNLLQGEELLRALDQVN; cysteine pairing not given here; also: GST fusion, not in chain; UniProt Q16665 775-826, looked up, variant N803Q)", "values": [
      {"measurement": "% activity relative to 775-826 peptide", "setting": "[3]", "value": "<0.01", "unit": "%"},
      {"measurement": "CO2 released", "setting": "[3]", "value": "<0.001", "unit": "nmol"}
    ]},
    {"molecule": "[Cl-].[Cl-].[Zn+2]", "note": "[zinc (II), zinc (II) chloride]", "values": [
      {"measurement": "IC50", "setting": "[1]; [4]", "value": 10, "unit": "µM"}
    ]},
    {"molecule": "GST HIF-1α 775-826 N803E: GST HIF-1α 775-826 with Asn-803 mutated to glutamate (PSDLACRLLGQSMDESGLPQLTSYDCEVEAPIQGSRNLLQGEELLRALDQVN; cysteine pairing not given here; also: GST fusion, not in chain; UniProt Q16665 775-826, looked up, variant N803E)", "values": [
      {"measurement": "% activity relative to 775-826 peptide", "setting": "[3]", "value": "<0.01", "unit": "%"},
      {"measurement": "CO2 released", "setting": "[3]", "value": "<0.001", "unit": "nmol"}
    ]},
    {"molecule": "B1", "values": [
      {"measurement": "% activity relative to 775-826 peptide", "setting": "[3]", "value": "<0.01", "unit": "%"},
      {"measurement": "CO2 released", "setting": "[3]", "value": "<0.001", "unit": "nmol"}
    ]},
    {"molecule": "B2", "values": [
      {"measurement": "% activity relative to 775-826 peptide", "setting": "[3]", "value": 1.8, "unit": "%"},
      {"measurement": "CO2 released", "setting": "[3]", "value": 0.05, "unit": "nmol"}
    ]},
    {"molecule": "B3", "values": [
      {"measurement": "% activity relative to 775-826 peptide", "setting": "[3]", "value": "<0.01", "unit": "%"},
      {"measurement": "CO2 released", "setting": "[3]", "value": "<0.001", "unit": "nmol"}
    ]}
  ]
}
